Laboratory results: the supplement of paper PMC9112550, “Optimization of the antimicrobial peptide Bac7 by deep mutational scanning” (BMC Biology, 2022)

system: Escherichia coli TOP10; assay: shrunken log2 fold change of peptide-encoding DNA abundance (4.5 h post-induction vs induction); higher = less antimicrobial activity (less host growth inhibition); details: time post-induction: 4.5 h; library: site-saturation at positions 5, 18, 19, 20
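Further: peptides expressed intracellularly from a pBAD plasmid library in pooled LB shake-flask culture, induced with 0.3% L-arabinose, DNA abundance read by NGS, three biological replicates, DESeq2 with apeglm shrinkage.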

| Sequence | shrunken log2 fold change |
| --- | --- |
| RRIRHRPPRLPRPRPRPRPLPRP | 0.255 |
| RRIRHRPPRLPRPRPRPRQAPRP | 0.495 |
| RRIRHRPPRLPRPRPRPRQTPRP | 0.0257 |
| RRIRHRPPRLPRPRPRPRREPRP | 0.217 |
| RRIRHRPPRLPRPRPRPRRLPRP | -0.0808 |
| RRIRHRPPRLPRPRPRPRRTPRP | 0.0506 |
| RRIRHRPPRLPRPRPRPRRYPRP | 0.0129 |
| RRIRHRPPRLPRPRPRPRSEPRP | 0.117 |
| RRIRHRPPRLPRPRPRPRVAPRP | 0.395 |
| RRIRHRPPRLPRPRPRPRVNPRP | 0.106 |
| RRIRHRPPRLPRPRPRPRVRPRP | 0.0975 |
| RRIRHRPPRLPRPRPRPRWSPRP | 0.00212 |
| RRIRHRPPRLPRPRPRPRYAPRP | -0.0694 |
| RRIRHRPPRLPRPRPRPRYEPRP | -0.0765 |
| RRIRHRPPRLPRPRPRPRYLPRP | -0.0229 |
| RRIRHRPPRLPRPRPRPRYVPRP | -0.585 |
| RRIRHRPPRLPRPRPRPSATPRP | -0.00655 |
| RRIRHRPPRLPRPRPRPSAWPRP | 0.373 |
| RRIRHRPPRLPRPRPRPSDGPRP | -0.266 |
| RRIRHRPPRLPRPRPRPSEDPRP | -0.00172 |
| RRIRHRPPRLPRPRPRPSEQPRP | -0.178 |
| RRIRHRPPRLPRPRPRPSFPPRP | -0.207 |
| RRIRHRPPRLPRPRPRPSFYPRP | -1.09 |
| RRIRHRPPRLPRPRPRPSGDPRP | -0.107 |
| RRIRHRPPRLPRPRPRPSGPPRP | 0.082 |

| Sequence | shrunken log2 fold change |
| --- | --- |
| RRIRHRPPRLPRPRPRPSIYPRP | -0.418 |
| RRIRHRPPRLPRPRPRPSKCPRP | -1.04 |
| RRIRHRPPRLPRPRPRPSKTPRP | -0.24 |
| RRIRHRPPRLPRPRPRPSMFPRP | -0.163 |
| RRIRHRPPRLPRPRPRPSNEPRP | -0.271 |
| RRIRHRPPRLPRPRPRPSNNPRP | -0.549 |
| RRIRHRPPRLPRPRPRPSPWPRP | 0.0405 |
| RRIRHRPPRLPRPRPRPSQLPRP | -0.00148 |
| RRIRHRPPRLPRPRPRPSSCPRP | -0.0272 |
| RRIRHRPPRLPRPRPRPSSPPRP | -0.316 |
| RRIRHRPPRLPRPRPRPSSTPRP | -0.741 |
| RRIRHRPPRLPRPRPRPSTAPRP | -0.24 |
| RRIRHRPPRLPRPRPRPSVEPRP | -0.2 |
| RRIRHRPPRLPRPRPRPSVHPRP | -0.204 |
| RRIRHRPPRLPRPRPRPSVMPRP | -0.19 |
| RRIRHRPPRLPRPRPRPTDEPRP | -0.123 |
| RRIRHRPPRLPRPRPRPTFCPRP | -0.186 |
| RRIRHRPPRLPRPRPRPTFMPRP | -0.102 |
| RRIRHRPPRLPRPRPRPTGCPRP | -0.0228 |
| RRIRHRPPRLPRPRPRPTGMPRP | 0.156 |
| RRIRHRPPRLPRPRPRPTHCPRP | -0.000996 |
| RRIRHRPPRLPRPRPRPTHMPRP | -0.065 |
| RRIRHRPPRLPRPRPRPTLEPRP | 0.319 |
| RRIRHRPPRLPRPRPRPTLRPRP | -0.0301 |
| RRIRHRPPRLPRPRPRPTMKPRP | -0.585 |

| Sequence | shrunken log2 fold change |
| --- | --- |
| RRIRHRPPRLPRPRPRPTPGPRP | 0.327 |
| RRIRHRPPRLPRPRPRPTPMPRP | 0.0946 |
| RRIRHRPPRLPRPRPRPTTVPRP | -0.0474 |
| RRIRHRPPRLPRPRPRPTVDPRP | -0.0548 |
| RRIRHRPPRLPRPRPRPTVFPRP | -0.251 |
| RRIRHRPPRLPRPRPRPTVWPRP | 0.123 |
| RRIRHRPPRLPRPRPRPTYAPRP | -0.127 |
| RRIRHRPPRLPRPRPRPTYDPRP | -0.0607 |
| RRIRHRPPRLPRPRPRPTYTPRP | -0.00607 |
| RRIRHRPPRLPRPRPRPVCSPRP | -0.168 |
| RRIRHRPPRLPRPRPRPVEAPRP | 0.0753 |
| RRIRHRPPRLPRPRPRPVETPRP | 0.0401 |
| RRIRHRPPRLPRPRPRPVHMPRP | -0.0408 |
| RRIRHRPPRLPRPRPRPVHTPRP | -0.292 |
| RRIRHRPPRLPRPRPRPVKTPRP | -0.164 |
| RRIRHRPPRLPRPRPRPVLKPRP | -0.295 |
| RRIRHRPPRLPRPRPRPVQCPRP | -0.00186 |
| RRIRHRPPRLPRPRPRPVQEPRP | -0.0785 |
| RRIRHRPPRLPRPRPRPVWLPRP | -0.0368 |
| RRIRHRPPRLPRPRPRPWAMPRP | -0.00884 |
| RRIRHRPPRLPRPRPRPWCMPRP | -0.0194 |
| RRIRHRPPRLPRPRPRPWCSPRP | -0.348 |
| RRIRHRPPRLPRPRPRPWDAPRP | -0.101 |
| RRIRHRPPRLPRPRPRPWFHPRP | -0.525 |
| RRIRHRPPRLPRPRPRPWGFPRP | -0.0192 |
